According to patent US20200277397A1 (Genmab, published 2020):
Like-named read-outs stand apart in the source and are kept apart here.

Assays:
full length human 5T4 [1] = target: T1, full length human 5T4 (human, UniProt Q13641 32-420); experiment: flow cytometry, HEK-293 cells transfected with human 5T4 (left panel), PE anti-human IgG F(ab')2, MFI PE
T1 construct: Uniprot Q13641; Used here also for endogenous 5T4 on the human tumour cell lines
T1 sequence: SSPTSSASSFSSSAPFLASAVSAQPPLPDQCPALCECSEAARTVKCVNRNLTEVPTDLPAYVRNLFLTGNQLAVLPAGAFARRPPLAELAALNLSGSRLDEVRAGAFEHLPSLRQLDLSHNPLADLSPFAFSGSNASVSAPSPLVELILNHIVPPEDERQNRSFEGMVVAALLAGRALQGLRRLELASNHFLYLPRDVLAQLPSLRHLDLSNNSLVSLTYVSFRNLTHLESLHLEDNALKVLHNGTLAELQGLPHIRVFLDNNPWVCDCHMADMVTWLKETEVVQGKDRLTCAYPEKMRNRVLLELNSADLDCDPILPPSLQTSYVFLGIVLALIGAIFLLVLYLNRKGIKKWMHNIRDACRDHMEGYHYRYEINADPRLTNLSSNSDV

[2] = target: T2, full length cynomolgus monkey 5T4 (cynomolgus monkey, UniProt Q4R8Y9 35-420); experiment: flow cytometry, HEK-293 cells transfected with cynomolgus monkey 5T4 (right panel), PE anti-human IgG F(ab')2, MFI PE
T2 construct: Uniprot Q4R8Y9; also called cynomolgus monkey 5T4 on HEK-293 cells
T2 sequence: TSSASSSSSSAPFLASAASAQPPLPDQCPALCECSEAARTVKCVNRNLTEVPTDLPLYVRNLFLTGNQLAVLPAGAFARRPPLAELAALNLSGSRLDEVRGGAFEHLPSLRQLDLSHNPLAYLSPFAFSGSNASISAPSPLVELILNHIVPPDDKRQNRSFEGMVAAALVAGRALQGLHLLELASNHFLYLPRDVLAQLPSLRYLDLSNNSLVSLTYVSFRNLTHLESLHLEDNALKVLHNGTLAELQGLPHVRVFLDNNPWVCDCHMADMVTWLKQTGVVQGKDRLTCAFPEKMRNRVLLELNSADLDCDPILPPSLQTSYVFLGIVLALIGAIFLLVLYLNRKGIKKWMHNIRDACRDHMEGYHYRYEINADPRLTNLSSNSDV

[3] = target: T2, full length cynomolgus monkey 5T4; experiment: as above; remark: listed apart in the source
full length human 5T4 [4] = target: T1, full length human 5T4; experiment: flow cytometry, HeLa cells, PE anti-human IgG F(ab')2, MFI PE
full length human 5T4 [5] = target: T1, full length human 5T4; experiment: flow cytometry, HEK-293 cells transfected with human 5T4 (left panel), PE anti-human IgG F(ab')2, MFI PE; remark: listed apart in the source
[6] = target: T2, full length cynomolgus monkey 5T4; experiment: flow cytometry, HEK-293 cells transfected with cynomolgus monkey 5T4 (right panel), PE anti-human IgG F(ab')2, MFI PE; remark: listed apart in the source
[7] = target: T2, full length cynomolgus monkey 5T4; experiment: as above; remark: listed apart in the source
full length human 5T4 [8] = target: T1, full length human 5T4; experiment: flow cytometry, HeLa cells, PE anti-human IgG F(ab')2, MFI PE; remark: listed apart in the source
[9] = target: T2, full length cynomolgus monkey 5T4; experiment: flow cytometry, HEK-293 cells transfected with cynomolgus monkey 5T4 (right panel), PE anti-human IgG F(ab')2, MFI PE; remark: listed apart in the source

B1: bsIgG1-huCD3-H101G-FEALx5T4-076-FEAR (bispecific antibody)
heavy 1: not shown
VL: not shown
heavy 2: QVQLVQSGAEVKKPGASVKVSCKASGYTFTSYGISWVRQAPGQGLEWMGWISAYNGNTNYAQKLQGRVTMTTDTSTRTAYMELRSLRSDDTAVYYCARDPGYFDWLYGDYWGQGTLVTVSSASTKGPSVFPLAPSSKSTSGGTAALGCLVKDYFPEPVTVSWNSGALTSGVHTFPAVLQSSGLYSLSSVVTVPSSSLGTQTYICNVNHKPSNTKVDKRVEPKSCDKTHTCPPCPAPEFEGGPSVFLFPPKPKDTLMISRTPEVTCVVVAVSHEDPEVKFNWYVDGVEVHNAKTKPREEQYNSTYRVVSVLTVLHQDWLNGKEYKCKVSNKALPAPIEKTISKAKGQPREPQVYTLPPSREEMTKNQVSLTCLVKGFYPSDIAVEWESNGQPENNYKTTPPVLDSDGSFFLYSRLTVDKSRWQQGNVFSCSVMHEALHNHYTQKSLSLSPGK
light: not shown
binding result (full length human 5T4 [1]): binds | EC50 (read off the curve) [2]: ~0.4 µg/mL

B2: bsIgG1-huCD3-H101G-FEALx5T4-A3-FEAR (bispecific antibody)
heavy 1: not shown
VL 1: not shown
heavy 2: EVQLVESGGGLVQPKGSLKLSCAASGFTFNTYAMNWVRQAPGKGLEWVARIRSKSNNYATYYADSVKDRFTISRDDSQSMLYLQMNNLKTEDTAMYYCVRQWDYDVRAMNYWGQGTSVTVSSASTKGPSVFPLAPSSKSTSGGTAALGCLVKDYFPEPVTVSWNSGALTSGVHTFPAVLQSSGLYSLSSVVTVPSSSLGTQTYICNVNHKPSNTKVDKRVEPKSCDKTHTCPPCPAPEFEGGPSVFLFPPKPKDTLMISRTPEVTCVVVAVSHEDPEVKFNWYVDGVEVHNAKTKPREEQYNSTYRVVSVLTVLHQDWLNGKEYKCKVSNKALPAPIEKTISKAKGQPREPQVYTLPPSREEMTKNQVSLTCLVKGFYPSDIAVEWESNGQPENNYKTTPPVLDSDGSFFLYSRLTVDKSRWQQGNVFSCSVMHEALHNHYTQKSLSLSPGK
VL 2: DIVMTQSHIFMSTSVGDRVSITCKASQDVDTAVAWYQQKPGQSPKLLIYWASTRLTGVPDRFTGSGSGTDFTLTISNVQSEDLADYFCQQYSSYPYTFGGGTKLEIK
binding result [3]: binds | binding result (full length human 5T4 [4]): binds

B3: bsIgG1-huCD3-H101G-FEALx5T4-085-FEAR (bispecific antibody)
heavy 1: not shown
VL: not shown
heavy 2: EVQLLESGGGLVQPGGSLRLSCAASGFTFSSYAMSWVRQAPGKGLEWVSAISGSGGSTYNADSVKGRFTIFRDNSKNTLYLHMNSLRAEDTAVYYCARDPGYNNVEYLDHWGQGTLVTVSSASTKGPSVFPLAPSSKSTSGGTAALGCLVKDYFPEPVTVSWNSGALTSGVHTFPAVLQSSGLYSLSSVVTVPSSSLGTQTYICNVNHKPSNTKVDKRVEPKSCDKTHTCPPCPAPEFEGGPSVFLFPPKPKDTLMISRTPEVTCVVVAVSHEDPEVKFNWYVDGVEVHNAKTKPREEQYNSTYRVVSVLTVLHQDWLNGKEYKCKVSNKALPAPIEKTISKAKGQPREPQVYTLPPSREEMTKNQVSLTCLVKGFYPSDIAVEWESNGQPENNYKTTPPVLDSDGSFFLYSRLTVDKSRWQQGNVFSCSVMHEALHNHYTQKSLSLSPGK
light: not shown
EC50 (read off the curve) (full length human 5T4 [5]): ~0.5 µg/mL | EC50 (read off the curve) [6]: ~0.4 µg/mL

B4: bsIgG1-huCD3-H101G-FEALx5T4-127-FEAR (bispecific antibody)
heavy 1: not shown
VL: not shown
heavy 2: EVQLLESRGGLVQPGGSLRLSCAASGFTFSSYAMSWVRQAPGKGLEWVSTISGSGGSTYYADSVKGRFTISRDNSKKTLYLQMNSLRAEDTAVYYCAKDWGSGSYPAEYFQHWGQGTLVTVSSASTKGPSVFPLAPSSKSTSGGTAALGCLVKDYFPEPVTVSWNSGALTSGVHTFPAVLQSSGLYSLSSVVTVPSSSLGTQTYICNVNHKPSNTKVDKRVEPKSCDKTHTCPPCPAPEFEGGPSVFLFPPKPKDTLMISRTPEVTCVVVAVSHEDPEVKFNWYVDGVEVHNAKTKPREEQYNSTYRVVSVLTVLHQDWLNGKEYKCKVSNKALPAPIEKTISKAKGQPREPQVYTLPPSREEMTKNQVSLTCLVKGFYPSDIAVEWESNGQPENNYKTTPPVLDSDGSFFLYSRLTVDKSRWQQGNVFSCSVMHEALHNHYTQKSLSLSPGK
light: not shown
EC50 (read off the curve) [7]: ~0.1 µg/mL

B5: bsIgG1-huCD3-H101G-FEALx5T4-A1-FEAR (bispecific antibody)
heavy 1: not shown
VL 1: not shown
heavy 2: QIQLVQSGPELKKPGETVKISCKASGYTFTNFGMNWVKQGPGEGLKWMGWINTNTGEPRYAEEFKGRFAFSLETTASTAYLQINNLKNEDTATYFCARDWDGAYFFDYWGQGTTLTVSSASTKGPSVFPLAPSSKSTSGGTAALGCLVKDYFPEPVTVSWNSGALTSGVHTFPAVLQSSGLYSLSSVVTVPSSSLGTQTYICNVNHKPSNTKVDKRVEPKSCDKTHTCPPCPAPEFEGGPSVFLFPPKPKDTLMISRTPEVTCVVVAVSHEDPEVKFNWYVDGVEVHNAKTKPREEQYNSTYRVVSVLTVLHQDWLNGKEYKCKVSNKALPAPIEKTISKAKGQPREPQVYTLPPSREEMTKNQVSLTCLVKGFYPSDIAVEWESNGQPENNYKTTPPVLDSDGSFFLYSRLTVDKSRWQQGNVFSCSVMHEALHNHYTQKSLSLSPGK
VL 2: SIVMTQTPKFLLVSAGDRVTITCKASQSVSNDVAWYQQKPGQSPKLLINFATNRYTGVPNRFTGSGYGTDFTFTISTVQAEDLALYFCQQDYSSPWTFGGGTKLEIK
binding result (full length human 5T4 [8]): binds | binding result [9]: binds
